# From patent publication US9482669B2, “Crystal structure of the NanR and ManNAc-6P complex, and uses thereof” (priority 2013, dated 2016)
# Positions count from the first letter of the chain named. Names and notes keep the numbering of the source.
# B1: NanR dimer: V. vulnificus transcriptional repressor of the nan operon, SEQ ID NO. 1 (protein, listed as Vibrio vulnificus)
# chain: MGSPKNLLVRLRSNMEPFSKKLRVVADYILENAHDVQFQTITDLARNTQTSEATVVRLCRDMGYKGYSDFRMALAVDLSQTESRQQNHIEGDICDVSAQSAVDSLQDTAKLIDRKSLARIVERVHQAEFIGCIGVGASSIVGRYLAYRLIRIGKKAIMFEDTHLAAMSASRSSQGDLWFAVSSSGSTKEVIHAAGLAYKRDIPVVSLTNINHSPLSSLSTEMLVAARPEGPLTGGAFASKVGALLLVDVLVNSLLESYPEYKDSVQETAEVVIPLMAN
# modifications: homodimer
# B2: R57A: modified NanR protein, Arg57 substituted with alanine (protein)
# chain: B1 chain with R57A
# B3: K199A (protein)
# chain: B1 chain with K199A
# B4: K199L (protein)
# chain: B1 chain with K199L
# B5: R60A: modified NanR protein, Arg60 substituted with alanine (protein)
# chain: B1 chain with R60A
# B6: NanR complexed with ManNAc-6P: complex formed by interaction between NanR protein and ManNAc-6P (protein, UniProt P0A8W0 1-263, looked up)
# HTH-type transcriptional …: MGLMNAFDSQTEDSSPAIGRNLRSRPLARKKLSEMVEEELEQMIRRREFGEGEQLPSERELMAFFNVGRPSVREALAALKRKGLVQINNGERARVSRPSADTIIGELSGMAKDFLSHPGGIAHFEQLRLFFESSLVRYAAEHATDEQIDLLAKALEINSQSLDNNAAFIRSDVDFHRVLAEIPGNPIFMAIHVALLDWLIAARPTVTDQALHEHNNVSYQQHIAIVDAIRRHDPDEADRALQSHLNSVSATWHAFGQTTNKKK
# modifications: complexed with ManNAc-6P
# How the values were obtained:
# [1] = test system: nanTp-nanE intergenic region; assay: EMSA of NanR with nanTp-nanE intergenic region; format: binding, Vibrio vulnificus; settings: for DNA binding in EMSA: wild-type or mutant NanR
# Protocol: (§1) Purified His-NanR protein was used to raise a primary polyclonal antibody by immunizing European rabbits (Oryctolagus curiculus). First, after one primary injection containing 500 μg of protein, three boosters containing 200 μg of protein was performed at 2-week intervals. Western blotting, EMSA and DNaseI footprinting assays were performed according to typical procedures known in the art.
# NanR represses both nan T(PSL)AR and nanEK nagA operons by binding to an operator within the nanTp-nanE intergenic region. To examine the role of R57 and R60 residues in DNA binding, EMSA (electrophoretic gel mobility shift assays), in which the nanTp-nanE intergenic region was incubated with wild-type or mutant NanR in the absence or presence of ManNAc-6P, were performed.
# The importance of K188 and K199 residues on all to binding of NanR to DNA was assessed by EMSA. […] Furthermore, the mutants were much more susceptible to ManNAc-6P than wild-type NanR (FIG. 10). […] The transcriptional control region of nan operon interacts with the dimer via the positively charged residues in this space (FIGS. 7b and 7c).
# [2] = test system: 32P-labeled transcriptional control region of nan operon; assay: DNaseI footprinting assay; format: binding, Vibrio vulnificus; settings: 400 nM NanR, 0.1 mM or 1 mM ManNAc-6P
# Protocol: as §1
# (§2) Therefore, the present inventors hypothesized that binding of ManNAc-6P may alter the conformation of NanR and alleviate its interaction with the transcriptional control region of nan operon. In detail, a DNaseI footprinting assay using NanR protein and ^32P-labeled transcriptional control region of nan operon was performed.
# [3] = biological target: NanR-binding duplex DNA (transcriptional control region of nan operon); assay: Isothermal titration calorimetry of NanR with NanR-binding duplex DNA; set-up: species or system Vibrio vulnificus; settings: for Kd: ITC at 25° C., 0.48 mM protein titrated against 0.03 mM DNA, read-out: dissociation constant (Kd) for target DNA
# Protocol: NanR-binding duplex DNA (5′-[…] […]-3′, SEQ ID NO:15) was chemically synthesized. NanR was dialyzed extensively against Tris buffer (50 mM Tris-HCl, pH 7.0; 300 mM NaCl) and the DNA was diluted to 0.03 mM in the same buffer. Protein and DNA samples were degassed by vacuum aspiration for 20 minutes prior to loading and titration was carried out at 25° C. The NanR dimer in the syringe (0.48 mM) was titrated against the 0.03 mM DNA sample in the reaction cell. Analysis of the interaction between the NanR/ManNAc-6P complex and the DNA sample was performed using 0.48 mM of complex and 0.03 mM of DNA. The calorimetric assays were performed using a VP-ITC (MicroCal Inc., Northampton, Mass.). The stirring speed was 300 rpm and the thermal power was recorded every 10 seconds. Data were processed and plotted using the Origin program (version 7) supplied with the instrument.
# as §2
# PnanTp = assay: E. coli dual plasmid system (luciferase reporter fused to PnanTp); format: cell-based; settings: for repressive effect of NanR on activity of PnanTp: point mutations in DBD
# Protocol: E. coli strains were co-transformed with a luciferase reporter plasmid (pBS0915) and one of the pNB-series of plasmids that express NanR. Cells were cultured overnight and then diluted into the appropriate fresh media (supplemented M9 in FIG. 3; LB in FIG. 4) containing arabinose (0.002%), and incubated at 37° C. until cells grew to early exponential phase. Relative luminescence unit (RLU) was calculated by dividing the luminescence by the A600, as described previously. For screening ligand-sensing residues, the BSE1201 strain (ΔaraBAD ΔnanE) was used as the host cell instead of DH5α to ensure that the arabinose was not used as a carbon source and that ManNAc-6P generated from Neu5Ac was accumulated in the cell.
# To assess the importance of the interaction between ManNAc-6P and NanR to regulation of the nan genes, the residues involved in ligand-binding were mutated and the impact on NanR function was investigated using an E. coli dual plasmid system. Cells were cotransformed with plasmids containing a luciferase reporter gene fused to the NanR-binding nanT(PSL)AR promoter (PnanTp), and wild-type or mutant NanR, and then incubated in the presence of arabinose and the presence or absence of Neu5Ac.
# The simplest helix-turn-helix (HTH)-containing DBD includes three core helices; the HTH domains can form tetra-helical bundle, winged helix, and ribbon-helix-helix type configurations. The DBD of NanR is composed of a six-helix bundle, which is not the archetypal conformation of HTH-containing domains; therefore, the recognition helix required for DNA-binding could not been determined. […] The importance of these residues to DNA-binding was examined using an E. coli dual plasmid system described in Example 2. The repressive effect of wild-type NanR on activity of PnanTp was abolished by the R57A, R57L, R60A, and R60L point mutations (FIG. 4c).
# PnanE = assay: In vitro transcription assay; format: biochemical, Vibrio vulnificus; settings: 100 nM NanR protein, presence or absence of 1 mM ManNAc-6P
# Protocol: In vitro transcription assays with wild-type or mutant NanR proteins were performed according to procedures described previously. RNA extraction, cDNA synthesis, and real time PCR amplification of the cDNA were performed as described previously.
molecule,measurement,setting,value
"CC(=O)N[C@@H]1C(O)O[C@H](COP(=O)(O)O)[C@@H](O)[C@@H]1O (some centres unmarked) [ManNAc-6P, N-acetylmannosamine 6-phosphate]",effect of ManNAc-6P on DNA migration in EMSA,[1]; addition of ManNAc-6P,retardation of DNA migration
same,effect of ManNAc-6P on DNaseI protection by NanR,[2],cleavage bands at the center of the NanR-binding site disappeared
B1,Kd,[3],1.4 µM
same,luciferase activity (PnanTp) after addition of Neu5Ac,"PnanTp; BSE1201 host, arabinose, presence or absence of Neu5Ac",increased following addition of Neu5Ac
B2,repressive effect of NanR on activity of PnanTp,PnanTp,abolished
same,DNA binding in EMSA,[1],No DNA migration was detected
same,repression of PnanE transcription,PnanE,did not repress PnanE
B3,DNA binding in EMSA,[1],not as conspicuous as that of wild-type NanR
B4,DNA binding in EMSA,[1],not as conspicuous as that of wild-type NanR
B5,repressive effect of NanR on activity of PnanTp,PnanTp,abolished
same,DNA binding in EMSA,[1],No DNA migration was detected
same,repression of PnanE transcription,PnanE,did not repress PnanE
B6,Kd,[3],186 µM
same,reduction of interaction affinity for DNA versus NanR dimer,[3]; NanR complexed with ManNAc-6P,130 fold
